Results from article PMC4354037.

Biological target: T1, BSU Pol I (BSU polymerase) (Bacillus subtilis) (UniProt O34996)
T1 sequence: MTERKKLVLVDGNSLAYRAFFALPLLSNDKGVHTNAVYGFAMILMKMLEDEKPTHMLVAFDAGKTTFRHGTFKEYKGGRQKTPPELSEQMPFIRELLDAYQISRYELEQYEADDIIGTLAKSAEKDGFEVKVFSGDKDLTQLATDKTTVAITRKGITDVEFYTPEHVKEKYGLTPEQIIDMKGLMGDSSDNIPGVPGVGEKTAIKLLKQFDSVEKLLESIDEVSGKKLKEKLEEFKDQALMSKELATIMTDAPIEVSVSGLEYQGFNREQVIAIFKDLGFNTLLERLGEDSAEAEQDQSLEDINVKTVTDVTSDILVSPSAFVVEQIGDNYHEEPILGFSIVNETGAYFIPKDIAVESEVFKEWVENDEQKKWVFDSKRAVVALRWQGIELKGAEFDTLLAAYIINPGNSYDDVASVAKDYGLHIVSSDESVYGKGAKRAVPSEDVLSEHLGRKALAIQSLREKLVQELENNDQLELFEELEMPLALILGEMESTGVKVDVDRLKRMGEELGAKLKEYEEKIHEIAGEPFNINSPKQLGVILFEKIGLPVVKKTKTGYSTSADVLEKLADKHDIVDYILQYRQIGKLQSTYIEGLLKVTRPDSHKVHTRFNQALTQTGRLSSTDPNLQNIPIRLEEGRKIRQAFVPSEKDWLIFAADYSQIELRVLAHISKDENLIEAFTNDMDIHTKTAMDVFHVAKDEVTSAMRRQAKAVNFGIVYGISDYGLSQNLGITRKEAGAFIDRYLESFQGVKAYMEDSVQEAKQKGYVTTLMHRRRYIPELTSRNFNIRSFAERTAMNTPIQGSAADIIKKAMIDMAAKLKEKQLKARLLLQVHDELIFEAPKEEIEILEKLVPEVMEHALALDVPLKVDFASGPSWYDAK
Test: stopped-flow fluorescence quenching
Settings: 375 mM NaCl, 10 mM MgSO4, fluorescein-modified thymidine in primer, five bases from the incorporation site, Stopped flow: 20 mM ACES pH 7.4, 62.5-325 mM NaCl (Methods; 375 mM in Results), 10 mM MgSO4, 1 uM acetylated BSA, 0.02% Tween-20, 1 mM TCEP, 600 nM enzyme …

GCTTGCACAGGGCCTCGAC / CGTTAGTAAGGTCGAGGCCCTGTGCAAGC [stopped-flow primer/template duplex]
binding signal (fold signal over mismatch) (correct nucleotide dCTP 100 uM): 3.5
binding signal (reference signal (correct is 3.5-fold)) (mismatch nucleotide dATP): 1
